What was measured:
human IPF-1 = assay: in vitro protein degradation test of IPF-1 by calpain (Western blotting); assay type: biochemical; conditions: 1 hour at 37° C.
Description: Using the IPF-1 expression plasmid, synthesis of IPF-1 protein was carried out in vitro using the TNT T7 Quick Coupled Transcription/Translation System. That is, the IPF-1 expression plasmid was mixed with TNT T7 Quick Master Mix, and then incubated for 1.5 hours at 30° C. in the presence of methionine to synthesize IPF-1.
Protein degradation tests were carried out in vitro by adding μ-calpain or m-calpain to IPF-1, and incubating for 1 hour at 37° C. in the presence of 200 mM Tris-HCl (pH 7.8)/1 mM DTT/6 mM CaCl2. The final concentrations of each calpain in the reaction systems were as follows: 50 units/mL of human μ-calpain; 50 μg/mL of rabbit m-calpain as a protein concentration, and 59 units/mL of rat m-calpain. For a control experiment, IPF-1 was incubated without addition of calpain in the same manner in the presence of calcium. Further, to test for protein degradation in the absence of calcium, a sample was prepared by adding 10 mM of EDTA instead of 6 mM of CaCl2, and incubated in the same manner. The samples after incubation were added to an equal volume of 2×SDS sample buffer, heated for 5 minutes, and subjected to 5-20% SDS-PAGE for separation. Thereafter, Western blotting was carried out to detect IPF-1 using anti-Xpress antibody and anti-IPF1 (PDX-1) antibody/N-18 (Santa Cruz Biotechnology, Inc.). The ECL Western blotting detection kit was used for conducting the detection.
In-vitro protein degradation tests were carried out in the same manner as Example 10, but the lysate of sf-9 cells that coexpressed m-calpain with calpain small subunit 1 was used as m-calpain. The final concentration of the lysate of sf-9 cells that expressed these proteins in the reaction system was 2.33 mg/mL as a protein concentration. The final concentration of rat m-calpain in the reaction system was 59 units/mL. Detection of IPF-1 was performed in the same manner as Example 10, but only anti-IPF-1 antibody/N-18 was used.

human HNF-4α = assay: in vitro protein degradation test of HNF-4α by calpain (Western blotting); assay type: biochemical; conditions: 1 hour at 37° C.
Description: Using the HNF-4α expression plasmid, in vitro synthesis of HNF-4α protein was conducted using the TNT T7 Quick Coupled Transcription/Translation System (Promega, Inc.). That is, the HNF-4α expression plasmid was mixed with TNT T7 Quick Master Mix, and then incubated for 1.5 hours at 30° C. in the presence of methionine to synthesize HNF-4α.
The in vitro protein degradation test was carried out by adding m-calpain extracted from rabbit muscle (Protease, Calcium-Activated Neutral (calpain), Sigma Chemical Co.) at a final concentration of 50 μg/mL to the synthesized HNF-4α, and then incubating for 1 hour at 37° C. in the presence of 200 mM Tris-HCl (pH 7.8)/1 mM dithiothreitol (DTT)/6 mM CaCl2. To conduct a degradation test in the absence of calcium, a test sample was prepared by adding 10 mM ethylenediaminetetraacetic acid (EDTA) instead of 6 mM CaCl2, and the sample was then incubated in a similar manner. The samples after incubation were added to an equal volume of 2× sodium dodecyl sulfate (SDS) sample buffer (4% SDS/125 mM Tris-HCl, pH 6.8/20% glycerol/0.01% bromphenol blue (BPB)/10% β-mercaptoethanol), heated for 5 minutes, and subjected to 10% SDS-PAGE for separation. Thereafter, Western blotting was carried out to detect HNF-4α using anti-HNF-4α antibody/HNF-4α (C-19) antibody (Santa Cruz Biotechnology, Inc.) and anti-Xpress antibody (Invitrogen, Inc.). An ECL Western blotting detection kit (Amersham pharmacia biotech) was used for the detection.
The final concentration of human m-calpain in the reaction system was 2.33 mg/mL as the protein concentration of the lysate of sf-9 cells that expressed human m-calpain. The final concentration of rat m-calpain in the reaction system was 59 units/mL. A degradation test was also conducted in the same manner without addition of calpain. Further, to test for degradation in the absence of calcium, a sample was prepared by adding 10 mM of EDTA instead of 6 mM CaCl2, and a degradation test was conducted with the sample in a similar manner. The samples after incubation were added to an equal volume of 2×SDS sample buffer, heated for 5 minutes, and subjected to 5-20% SDS-PAGE for separation. Thereafter, Western blotting was carried out to detect HNF-4α using anti-HNF-4α antibody/HNF-4α (C-19) antibody. An ECL Western blotting detection kit was used for the detection.
An in vitro protein degradation test was carried out by adding μ-calpain to HNF-4α at a final concentration of 50 units/mL, and incubating for 1 hour at 37° C. in the presence of 200 mM Tris-HCl (pH 7.8)/1 mM DTT/6 mM CaCl2. […]

[1] = in the absence of calcium (10 mM EDTA instead of CaCl2)
[2] = in the presence of calcium (6 mM CaCl2), Western blotting

B1: human m-calpain: lysate of sf-9 insect cells coexpressing human m-calpain with calpain small subunit 1; FLAG-tagged, expressed in HEK293T cells, in Example 3 (protein, UniProt P17655 20-700; P04632 1-268, looked up)
Calpain-2 catalytic subunit: SHDRAIKYLNQDYEALRNECLEAGTLFQDPSFPAIPSALGFKELGPYSSKTRGIEWKRPTEICADPQFIIGGATRTDICQGALGDCWLLAAIASLTLNEEILARVVPLNQSFQENYAGIFHFQFWQYGEWVEVVVDDRLPTKDGELLFVHSAEGSEFWSALLEKAYAKINGCYEALSGGATTEGFEDFTGGIAEWYELKKPPPNLFKIIQKALQKGSLLGCSIDITSAADSEAITFQKLVKGHAYSVTGAEEVESNGSLQKLIRIRNPWGEVEWTGRWNDNCPSWNTIDPEERERLTRRHEDGEFWMSFSDFLRHYSRLEICNLTPDTLTSDTYKKWKLTKMDGNWRRGSTAGGCRNYPNTFWMNPQYLIKLEEEDEDEEDGESGCTFLVGLIQKHRRRQRKMGEDMHTIGFGIYEVPEELSGQTNIHLSKNFFLTNRARERSDTFINLREVLNRFKLPPGEYILVPSTFEPNKDGDFCIRVFSEKKADYQAVDDEIEANLEEFDISEDDIDDGFRRLFAQLAGEDAEISAFELQTILRRVLAKRQDIKSDGFSIETCKIMVDMLDSDGSGKLGLKEFYILWTKIQKYQKIYREIDVDRSGTMNSYEMRKALEEAGFKMPCQLHQVIVARFADDQLIIDFDNFVRCLVRLETLFKIFKQLDPENTGTIELDLISWLCFSVL
Calpain small subunit 1: MFLVNSFLKGGGGGGGGGGGLGGGLGNVLGGLISGAGGGGGGGGGGGGGGGGGGGGTAMRILGGVISAISEAAAQYNPEPPPPRTHYSNIEANESEEVRQFRRLFAQLAGDDMEVSATELMNILNKVVTRHPDLKTDGFGIDTCRSMVAVMDSDTTGKLGFEEFKYLWNNIKRWQAIYKQFDTDRSGTICSSELPGAFEAAGFHLNEHLYNMIIRRYSDESGNMDFDNFISCLVRLDAMFRAFKSLDKDGTGQIQVNIQEWLQLTMYS
modifications: FLAG tag
Human IPF-1; [1]
  degradation of IPF-1: not observed
Human IPF-1; [2]
  degradation of IPF-1: observed
Human HNF-4α; [1]
  degradation of HNF-4α: not observed
Human HNF-4α; [2]
  degradation of HNF-4α: observed

Reference: patent publication US20070004636A1, “Method of degrading transcriptional factors of saccharometabolism-associated gene, method for inhibiting the degradation, and agent for inhibiting degradation and degradation inhibitor” (priority 2002, published 2007)
